Results on two substances are retold here after patent US20220265819A1.

The assay concerns the target full length pHrodo-labelled monomeric (P301S) 2N4R tau (human) (UniProt P10636). The assay is described as follows: cell-based or functional assay.

Sequence of full length pHrodo-labelled monomeric (P301S) 2N4R tau (human) (P10636 other isoform, or with tags, fused parts or gaps P301S P301S): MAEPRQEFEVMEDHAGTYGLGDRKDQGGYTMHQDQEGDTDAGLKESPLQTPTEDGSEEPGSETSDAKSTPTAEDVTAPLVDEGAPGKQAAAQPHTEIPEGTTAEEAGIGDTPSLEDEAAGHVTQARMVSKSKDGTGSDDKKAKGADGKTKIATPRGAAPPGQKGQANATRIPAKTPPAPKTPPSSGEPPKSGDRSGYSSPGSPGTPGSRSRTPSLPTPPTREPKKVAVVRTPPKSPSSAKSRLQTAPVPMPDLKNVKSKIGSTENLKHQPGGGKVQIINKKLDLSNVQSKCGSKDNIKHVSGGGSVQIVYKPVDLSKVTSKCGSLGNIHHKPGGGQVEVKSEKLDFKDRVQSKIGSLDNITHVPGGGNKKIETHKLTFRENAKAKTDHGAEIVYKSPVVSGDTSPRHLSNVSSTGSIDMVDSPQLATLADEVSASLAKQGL

The substance human IgG1 isotype control (antibody) displayed an inhibition of uptake of monomeric tau into human iPSC-derived neurons of 16.9 % inhibition.

“isotype control rabbit IgG (Abcam) (antibody)” gave an inhibition of uptake of monomeric tau into human iPSC-derived neurons of 14.5 % inhibition.
